Results taken from PMC2820149 (Journal of the American Chemical Society, 2010).
Each block holds one molecule with its values, some of them ahead of it.

What was measured:
[1] = tested on: Pa0142 homologue (gi|44264246)
deamination kinetics [2] = substrate: Nc1nc2nc[nH]c2c(=O)[nH]1; experiment: deamination kinetics; format: biochemical, Pseudomonas aeruginosa
deamination kinetics [3] = substrate: Nc1nc2nc[nH]c2c(=O)[nH]1; experiment: deamination kinetics; format: biochemical, Escherichia coli
coupled ammonia assay [4] = substrate: Nc1nc2nc[nH]c2c(=O)[nH]1; experiment: coupled ammonia assay; format: biochemical, Pseudomonas aeruginosa; settings: pH 8.0, 30 °C
coupled ammonia assay [5] = substrate: Nc1nccc(O)n1; experiment: coupled ammonia assay; format: biochemical, Pseudomonas aeruginosa; settings: pH 8.0, 30 °C

Km [1]: 1000 ± 100 µM
Molecule: Nc1nc2[nH]cnc2c(=O)[nH]1 [compound 2, guanine]

Km [1]: 1600 ± 200 µM
Molecule: Nc1nccc(=O)[nH]1 [compound 3, isocytosine]

B1: Pa0134 (Pseudomonas aeruginosa PAO1) (protein)
chain: MNDAVPAGNFVPPLILHSDHGGSAMSSSAHRGRILHFLGDPAKLGDKAWEYFEDGLLWIEHGHVRALDHATYLLPQLPADLPLEEHPQRLLLPGFVDCHVHYPQLGVIASYGTQLLDWLETHTFPAEQRFADAGYAAAQAELFLDELLRHGTTTALVFGTVHAVSAEAFFQAAQKRRLRMIAGKVLMDRNAPPALCDTAASGYAESRALIERWHGNGRLQYAVTPRFAPTSSPEQLAAAARLLDEYPGVYLHTHLSENLKEVAWVGELFPQAQDYLDVYHRAGLVGERSVFAHGIHLSERECRCLAHKNAALAHCPSSNLFIGSGLFDLGRAQQYGIRVGIGSDVGGGTSLSLLANLADAYKIQQLRGTSLDPFQALYLATLGGARALDLDGLVGNFLPGREADFVALDLAATPMIAQRMEHARGLADTLFVLNTLGDDRAVAETWVMGERRHVKG
Km (deamination kinetics [2]): 500 ± 90 µM | kcat (deamination kinetics [2]): 21 ± 2 s⁻¹

B2: b2883 (Escherichia coli K-12) (protein)
chain: MMSGEHTLKAVRGSFIDVTRTIDNPEEIASALRFIEDGLLLIKQGKVEWFGEWENGKHQIPDTIRVRDYRGKLIVPGFVDTHIHYPQSEMVGAYGEQLLEWLNKHTFPTERRYEDLEYAREMSAFFIKQLLRNGTTTALVFGTVHPQSVDALFEAASHINMRMIAGKVMMDRNAPDYLLDTAESSYHQSKELIERWHKNGRLLYAITPRFAPTSSPEQMAMAQRLKEEYPDTWVHTHLCENKDEIAWVKSLYPDHDGYLDVYHQYGLTGKNCVFAHCVHLEEKEWDRLSETKSSIAFCPTSNLYLGSGLFNLKKAWQKKVKVGMGTDIGAGTTFNMLQTLNEAYKVLQLQGYRLSAYEAFYLATLGGAKSLGLDDLIGNFLPGKEADFVVMEPTATPLQQLRYDNSVSLVDKLFVMMTLGDDRSIYRTYVDGRLVYERN
Km (deamination kinetics [3]): 150 ± 10 µM | kcat (deamination kinetics [3]): 12.5 ± 0.2 s⁻¹

B3: Pa0142 (Pseudomonas aeruginosa PAO1) (protein)
chain: MSRTWIRNPLAIFTANGLDAAGGLVVEDGRIVELLGAGQQPAQPCASQFDASRHVVLPGLVNTHHHFYQTLTRAWAPVVNQPLFPWLKTLYPVWARLTPEKLELATKVALAELLLSGCTTAADHHYLFPGGLEQAIDVQAGVVEELGMRAMLTRGSMSLGEKDGGLPPQQTVQEAETILADSERLIARYHQRGDGARVQIALAPCSPFSVTPEIMRASAEVAARHDVRLHTHLAETLDEEDFCLQRFGLRTVDYLDSVGWLGPRTWLAHGIHFNAEEIRRLGEAGTGICHCPSSNMRLASGICPTVELEAAGAPIGLGVDGSASNDASNMILEARQALYLQRLRYGAERITPELALGWATRGSARLLGRSDIGELAPGKQADLALFKLDELRFSGSHDPLSALLLCAADRADRVMVGGAWRVVDGAVEGLDLAALIARHRAAASALIAG
Km (coupled ammonia assay [4]): 2600 ± 600 µM | kcat (coupled ammonia assay [4]): 3.3 ± 0.6 s⁻¹ | Km (coupled ammonia assay [5]): 1800 ± 100 µM | kcat (coupled ammonia assay [5]): 3.9 ± 0.1 s⁻¹
